# According to the DeepSol protein solubility set:
# Assay: soluble on expression in E. coli; label from the status in PepcDB or PDB records
row,Sequence,soluble on expression in E. coli
1,MKVLFRSDSSSQIGFGHIKRDLVLAKQYSDVSFACLPLEGSLIDEIPYPVYELSSESIYELINLIKEEKFELLIIDHYGISVDDEKLIKLETGVKILSFDDEIKPHHCDILLNVNAYAKASDYEGLVPFKCEVRCGFSYALIREEFYQEAKENRKKKYDFFICMGGTDIKNLSLQIASELPKTKIISIATSSSNPNLKKLQKFAKLHNNIRLFIDHENIAKLMNESNKLIISASSLVNEALLLKANFKAICYVKNQESTATWLAKKGYEVEYKYLEHHHHHH,soluble
2,MGSDKIHHHHHHMKIAFDVDVIKDLGITRMVHQVAEWGYKYIEQSPHPQINPFYKHPRASREIMAEYKQALRDTGLELSSFICVYRWSGPDELRRQAAVKNWKRLVEIAVEMGVQVINTEFSGDPNQPEICDEMFYRSMEELLPIFEREGIRVEIQAHPWDFCEENNETVDIVKSFRSDNVKYVYSVPHTFFYDKGVGDVASMLRYAGSDLSHVLIADTRNHTKHCRYIVNPPGVDAVVHQHVGVGEGDVDFDALFRTLREMKFAEQTFKVGGAPIVATSLFGYPEKMKYQAVETRELIERELLRR,not soluble
3,MSWDLSTAKPPVVVDTTLRDGSHAHRHQYTVEEARAIAQALDEAGVYAIEVSHGDGLGGSSLQYGFSRTDEMELIRAVRETVRRAKVAALLLPGIGTRKELKEAVEAGIQMVRIATQCTEADISEQHFGMAKEMGLEAVGFLMMSHMRPPEFLAEQARLMEGYGADVVYIVDSAGAMLPEDAYARVKALKEALSRAKVGFHAHNNLGLAIGNTLAALAAGADWVDATLRGYGAGAGNAPLEVLAAVLDKAGLNPGLDVFKLLDAAEYVMGPILHFQPYPDRDSVAIGYAGVYSTFLLHAKRIGKELGVDPLAILLELGRRQAVAGQEDWILRVALELKEKEAGALAD,soluble
4,AFTGKFEMESEKNYDEFMKLLGISSDVIEKARNFKIVTEVQQDGQDFTWSQHYSGGHTMTNKFTVGKESNIQTMGGKTFKATVQMEGGKLVVNFPNYHQTSEIVGDKLVEVSTIGGVTYERVSKRLA,soluble
5,MVELVISPSLTVNSDCLDKLKFNRADAAVWTLSDRQGITKSAPLRVSQLFSRSCPRVLPRQPSTAMAAYGQTQYSAGIQQATPYTAYPPPAQAYGIPSFSTSPTGQSPYTYQMHGTTGFYQGGNGLGNAAGFGSVHQDYPSYPGFPQSQYPQYYGSSYNPPYVPASSICPSPLSTSTYVLQEASHNVPNQSSESLAGEYNTHNGPSTPAKEGDTDRPHRASDGKLRGRSKRSSDPSPAGDNEIERVFVWDLDETIIIFHSLLTGTFASRYGKDTTTSVRIGLMMEEMIFNLADTHLFFNDLEDCDQIHVDDVSSDDNGQDLSTYNFSADGFHSSAPGANLCLGSGVHGGVDWMRKLAFRYRRVKEMYNTYKNNVGGLIGTPKRETWLQLRAELEALTDLWLTHSLKALNLINSRPNCVNVLVTTTQLIPALAKVLLYGLGSVFPIENIYSATKTGKESCFERIMQRFGRKAVYVVIGDGVEEEQGAKKHNMPFWRISCHADLEALRHALELEYL,not soluble
6,MTDILIDNTATETVRTLIRAFPLVPVSQPPEQGSYLLAEHDTVSLRLVGEKSSVIVDFASGAAQYRRTKGGGELIAKAVNHTAHPTVWDATAGLGRDSFVLASLGLAVTAFEQHPAVACLLSDGIRRALLNPETQNTAAHINLHFGNAAEQMPALVQTQGKPDIVYLDPMYPERRKSAAVKKEMTYFHRLVGEAQDEAALLHTARQTAKKRVVVKRPRLGEHLAGQDPAYQYTGKSTRFDVYLPYGTDKGLEHHHHHH,soluble
7,MGHHHHHHSHQMVNQQQNKFDLRPLMEAVDTVKQKITLLENNDQRLAVLEEETNKHDTHINIHKAQLSKNEERFKLLEGTCYNGKLIWKVTDYKMKKREAVDGHTVSIFSQSFYTSRCGYRLCARAYLNGDGSGRGSHLSLYFVVMRGEFDSLLQWPFRQRVTLMLLDQSGKKNIMETFKPDPNSSSFKRPDGEMNIASGCPRFVAHSVLENAKNAYIKDDTLFLKVAVDLTDLEDL,not soluble
8,MSLEDSTATFETRNMYFNRDFRDGTSAQQSKRDEWAQGFILNFESGYTDGTVGFGLDALGMLGIKLDSSPDRTDSGLLPTHDDGKAADEYSKLGLTGKVKISQTELKIGTLIPELPTLQPNDGRILPQTFEGGLLTSKEIKGLTFTGGRIDKAKDRNDTNWEDLALNNKNGRFGGTFSADNLALGGLDYQFTDRITGSYHFAQLDDIYRQHFIGMVATQPWGPGTLGADLRLAMSDDAGAAKAGNIDNTTVNGMLSYALGGHKVSAAWQQLSGESAFPYVDGADPYLVNFVQINDFAGADERSWQARYDYNFAALGVPGLTFMTRYISGDNVSRAAGGEGKEWERNTELKYVVQSGPLKNVAVRLRNATFRSNFARDADEVRLLVSYSVALWEGHHHHHH,soluble
9,MTNVQEQDKRKGGRPPTGRVRKLSKSVTVKFSKPSYEALKLRARKANRKLAEYIRESALNGEVVSGHNAETVAIAKNLIGMANNLNQLANLSHQRGFHETHVYVVDLLRRLKEILDEYRQASYKPKPSSMGRKEDTT,not soluble
10,SSRTFTEQLNALLELGCETLGSSFGTLSRVHGDEYVFEAVTAPTTADLEAGRTTSIEDLPNCRHVVEHREPLAIRDVEADAPDLADPEWGIVNYIGAPVVVDGAVYGTFCFYGLEPRTAEFTQWDLTFVRLLSDWAGYELERQRHSEQRDALNTAF,not soluble
11,MTNQKQTTHFGFKSVDWNEKEKKVAEVFHSVAKNYDRMNDLMSLGIHHLWKRYTIELSHVRPGQSVLDLAGGSGDLTRLLLQKVGDSGQVILADINAAMLHVGRDRLLDEGLFKNIRYVQGNAQCLPFADNSFHCITMGFGLRNVTDKDEALQSMYRVCKPGGKLMVLEFSTPVFPGLKPVYDWYSFNILPKIGKFVANDEASYQYLAESIRMHPDQETLKAMIERVGFEDCHYHNLSGGIVALHIAYKYLEHHHHHH,not soluble
12,SGVPVYICSSLKPDALAEAAEHQADGSFFVPRAKGLRTQKQWLAFYSESRGSVYVDEGAEHALSEQGKSLLMSGIAGIEGHFSRMDTVTVYSKATKQPLGKGRVLFGSAAAEDLLKSRKAKGVFIHRDDWISITPEIRLLLTEF,not soluble
13,MGSDKIHHHHHHMEILMLKTFKAVVDEDGIKGAADKLHTVQSNITSRIKKLEKELDTKLFTIIGRKLQLTPSGQQLCEYADQILQLEYQATSAILRNKGTYELRVGMPETFAAVHMPMALKKLKLNHAEIRTKIHTDTSERLVFSVLNNKVDCAAIGNAPKHENLIIIPIVKEELIMVTPRDSEHDPVLFVRDEGCGYRKHALIWQQKAGRGNDELMVMSSADGVLGCIAAGLGYTIIGKNMVAGSRYEKSLVMTPVSHGPKHVQLSIVYRKDSPLESGILTLAKLLTK,not soluble
14,MSLIHIAIAEDDFRVAQIHERLIKQLDGFKIIGKAANAKETLALLKEHKADLLLLDIYMPDELGTALIPDIRSRFPEVDIMIITAATETRHLQEALRAGIAHYLIKPVTADKFRQVLLQYKEKRKLLMSQPKGIITITTDPNSSSVDKLAAALEHHHHHH,soluble
15,MTNVLIEDLKWRGLIYQQTDEQGIEDLLNKEQVTLYCGADPTADSLHIGHLLPFLTLRRFQEHGHRPIVLIGGGTGMIGDPSGKSEERVLQTEEQVDKNIEGISKQMHNIFEFGTDHGAVLVNNRDWLGQISLISFLRDYGKHVGVNYMLGKDSIQSRLEHGISYTEFTYTILQAIDFGHLNRELNCKIQVGGSDQWGNITSGIELMRRMYGQTDAYGLTIPLVTKSDGKKFGKSESGAVWLDAEKTSPYEFYQFWINQSDEDVIKFLKYFTFLGKEEIDRLEQSKNEAPHLREAQKTLAEEVTKFIHGEDALNDAIRISQALFSGDLKSLSAKELKDGFKDVPQVTLSNDTTNIVEVLIETGISPSKRQAREDVNNGAIYINGERQQDVNYALAPEDKIDGEFTIIRRGKKKYFMVNYQ,soluble
16,MGSDKIHHHHHHMANIYPKRAIYCACAKTRKQRRSSYMSNERYNLRGVSASKEDVHAAIKNVDKGIFPQAFCKIIPDILGGDPDYCNIMHADGAGTKSSLAYVYWRETGDLSVWKGIAQDALIMNIDDLLCVGAVDNILVSSTIGRNKRLIPGEVVSAIINGTEELLADLRRMGVNAYATGGETADVGDLVRTIIVDSTVTCRMKRSDVIDNARIKAGDVIVGLASFGQASYEEQYNGGMGSNGLTSARHDVFAHYLAEKYPESFDPSVPDDLVYSGSMKLTDAIAGLGLDAGKLVLSPTRTYAPVVKAILDEMSRRIHGMVHCSGGAQTKVMHFVKNKRVVKDNFFPTPPLFELIQRESLTEWSEMYKVFNMGHRLEVYLSEENASHVIEISESFGIPARIVGRVEEAPTNELILQTPYGEIRY,not soluble
